According to the DeepSol protein solubility set:

Assay: soluble on expression in E. coli; label from the status in PepcDB or PDB records

| Sequence | soluble on expression in E. coli |
| --- | --- |
| MSLRIIVVGGGKVGTALCRSLVAEKHDVVLIEKKENVLKRVTKQHDIMGIVGNGANYKILEQAEVKNCDIFIAITDRDEVNMISAVLAKKMGAKETVVRMRNPEYSNPYFKDKNFLGFSSVVNPELLAAQYIANTIEFPNATSVEHFANGRVMLMEFKILEGNKLCHTSMSQIRKKFGNIVICAIERDGKLIIPDGDATIQVKDKIFVTGNRIEMILFHNYVKNKVVKNLMVIGAGRIAYYLLNILKNTNTHVKLVELNQEQAEYFSQEFPNVPVVHGDGTAKNILLEESVTSFDAVATLTGVDEENIITSMFLESIGIPKNITKVNRTSLLEIIDDKQLSSIITPKRIAVDHVMHFVRGRVNAQDSNLEAMHHIANDRIETLQFEIKETSKLANRSLASLKLKQNILIAAIIRNNKTIFPTGEDVLTVGDRIVVITLLKNITRTSDMLAREGHHHHHH | soluble |
| YTDRKNRIVEVDIASKAKRTVMQNPEGEFYEVNYSPDSQWITYTKSGANNMSVIYVYHLTSGKEYPVTE | not soluble |
| MAHHHHHHMRGTTKPMLFLCSTAVRLNFFPLGLSAGPLNSHILLPRNNFDGRTTHGMKKIQGQSKDPQMVMSRDELKLRCEYCRFEWIHDTLCVRCPAQPSHDQREMWLHSTWMWGKQQPYKYYKYMPAVRNPRTGMPMAREDARGMNNERRGQGLTTRTLNLEKERRGISRDVSRIGQYNTRWKTRFPFPT | not soluble |
| MGSDKIHHHHHHMNPNTVPPAARDVAWIKHALQTAIELEYSTLPLYLSAMFSLEVQNYTAYNAIRSIAMEEMVHMAIAANLLAALGGSPQFKPIQIAYPTTGLPGGAEPDLHVGLARYSKPQLKNFLRIETPGFLLRQLGRDEGYPTIAAFYESIRSAIARNANAVRAAVQAGGPANQVGDDIGFTTVTYKPGVDPVESFDAGIGEILQQGEGSGRGDVFAGNPFEDEESHYARFAELYYGARYQAPSPPVDFNPKNEPLFFGGPAIAAPVVVNTLAVPRDGYARILALDPERDTVESDLNAFDSGFSKILSTLDAVWNGPSSTSWKTLGAAVHGMVDLRVLSCFNIMRHAVPAAAVSQLAELYPDEIGFLRTYTDLSKPVFYGPRFVNVNGKQAS | not soluble |
| MAHKSKSPYLMYPEKEPFPILNKHSHYDHLFEEMYELEEKGEILVFRITEEYRPKYVYTRTGRIKVIPTNKLWHHKSCGQCGNIPGYPASIFWFMNKFGLDYLNEPHQTSCTAWNYHGSGTSNPVALAAVWLRNMHQAWKTGYYPLIHCGTSFGSYKETREQLIFNKELREAVKPILKKLGRLTEDGRIVIPQEIVHYSEWVHAMRDGNSRPLRKRKESPKE | not soluble |
| MGSDKIHHHHHHMGEKMLGIINATGSFPSLKKVTGHRSLAALPFGGRYRLIDFMLSNMVNSNIHSVAVFTSHKNRSLMDHVGSGKQWDLDRKRDGLFLFPPNCQCDQDEFGSFAHFRRHIDYFLRAREEYVVITNSHLVTALNFQAVLERHIHTAADITEVCHEGVSLQTYVLKKQLLLDLFDSYKDVEQYSLFDVVREKRGKSLHIATYEHTGYVAIIDSIESYYKHSLEILQPAIWKQLFKKEAPIFTKVKDEPPTRYVKGAVVKNTMIANGSIIEGEVENSVVSRSVKIGKGSIVRNSIIMQKSQIGDNCIIDGVIIDKDVKIGDGVVLKGNADEPYVVEKGSVQNSTINSYS | not soluble |
| MAYVGDDLIDWPVMEKVGLSVAVADAHPLLIPRADYVTRIAGGRGAVREVCDLLLLAQGKLDEAKGQSI | not soluble |
| MCMMSKVVSKMKSFLGFDEFEDEDEVMEEEEVMEEEESFAPVLSSKKNGKVVNIHTANTAKLMITKPLVYDDATEICTALKNRKIVVINTTSLELRTAQRLIDFVGGACYALCGELQEVEKGVFIVSPSNVEVSNELKSELSNKGMFNWASKLEHHHHHH | not soluble |
| MKIKSNLKLRRIGNRHMIVEVSDSCVNLTNVYSLNGTAARLWEMVCNGEGRTAGELAEGLCKTYDVEYGRALRDVERQIEEWEKMGLLSRRGTGD | not soluble |
| MFKRLLMVALLVVAPLANAADQTNPYRLMNEAAEKTFNRLKSEQPKIKQSPDYLRTVVREELLPYVQVRYAGALVLGRYYKDSTPAQRDAYFKAFEAYLEQAYGQALAMYNGQNYQIAPEQPLGNADIVSIRVTIVDNGGRPPVRLDFQWRKNSKTGNWQAYDMIAEGVSMITTKQNEWASILRQKGVDGLTQQLESSAKQTITLDQKKLEHHHHHH | soluble |
| MRIKKKNTRGNARNFITRSQAVRKLQVSLADFRRLCIFKGIYPREPRNKKKANKGSTAPTTFYYAKDIQYLMHEPVLAKFREHKTFARKLTRALGRGEVSSAKRLEENRDSYTLDHIIKERYPSFPDAIRDIDDALNMLFLFSNLPSTNQVSSKIINDAQKICNQWLAYVAKERLVRKVFVSIKGVYYQANIKGEEVRWLVPFKFPENIPSDVDFRIMLTFLEFYSTLLHFVLYKLYTDSGLIYPPKLDLKKDKIISGLSSYILESRQEDSLLKLDPTEIEEDVKVESLDASTLKSALNADEANTDETEKEEEQEKKQEKEQEKEQNEETELDTFEDNNKNKGDILIQPSKYDSPVASLFSAFVFYVSREVPIDILEFLILSCGGNVISEAAMDQIENKKDIDMSKVTHQIVDRPVLKNKVAGRTYIQPQWIFDCINKGELVPANKYLPGEALPPHLSPWGDAIGYDPTAPVEEGEEEESESESESEDQVEEEDQEVVAGEEDDDDDEELQAQKELELEAQGIKYSETSEADKDVNKSKNKKRKVDEEEEEKKLKMIMMSNKQKKLYKKMKYSNAKKEEQAENLKKKKKQIAKQKAKLNKLDSKK | soluble |
| MELLCPAGNLASLKSALQAGADAVYLGLKDDTNARSFAGLNFTPAKLQEAAELTHQRGKKIFLTLNTFPKPNEEHRWYQAIDLAAKIGVDALIVADLSLLDYAHRQYPHIPLHLSVQASATNLGALSFYKEAFNVSRVVLPRVLSMKQVRDLAKVSPVDLEVFAFGSLCIMAEGRCHLSSYVTGQSPNTGGSCSPAKHVRWQEQGQDRLTWLNEVLIDKSGLDEQMGYPVVCKGRYLTQEDDKPQYLLESPTSLNTLSLLPELAKAGIVSLKIEGRQRSPAYVEQVTKVWRQAIDTYLNHPDKFQTQAHWEQALAKVSEGQITTLGAYERNWQ | not soluble |
| MGSDKIHHHHHHSRSTKGVRELSLFNRHTGEYNNGSYWVDGHYQSEVLADFSHLLRDHRQNVAAPMDKRLFDLLYTLKSTLNTDKEIHVISGYRSPKTNAMLAGKSGGVAKKSYHMQGMAMDIAIPGVNLKTIRDAALSLKLGGVGYYPKSGFVHVDCGPVRHW | not soluble |
| MSLSRRPAYARLLDRAVRILAVRDHSEQELRRKLAAPIMGKNGPEEIDATAEDYERVIAWCHEHGYLDDSRFVARFIASRSRKGYGPARIRQELNQKGISREATEKAMRECDIDWCALARDQATRKYGEPLPTVFSEKVKIQRFLLYRGYLMEDIQDIWRNFADEGHHHHHH | soluble |
| AEALAAGQRRIAKGERDFKDRVGFLRGRARPASTLITRFIADHQGHREGPDGLRWGVESICTQLTELGVPIAPSTYYDHINREPSRRELRDGELKEHISRVHAANYGVYGARKVWLTLNREGIEVARCTVERLMTKLGLSGTTRGKARRTTIADPATARPADLVQRRFGPPAPNRLWVADLTYVSTWAGFAYVAFVTDAYARRILGWRVASTMATSMVLDAIEQAIWTRQQEGVLDLKDVIHHTDRGSQYTSIRFSERLAEAGIQPSVGAVGSSYDNALAETINGLYKTELIKPGKPWRSIEDVELATARWVDWFNHRRLYQYCGDVPPVELEAAYYAQRQRPAAG | soluble |
| SLNKKFSYPIPNFTDRRKSIIFWRYLRFQARKILYFPQVRLLEKTLNKEKNKHLKDFFSQRPYACYNATRRFCDKSFKANERVKTLIYDVDKGLACFKFLPEEQIIFSFDEDFELFLGYNYNVCEEGFWAFSLKFKKYTILQCNFCFTLENNLLLSCIQGHKYKDFNILEINKILTKKCHGLRPVALLIECSKMLCEILKLQTTLGVHEKNQIRSQKGKEKGYFVDYQKIWLENGGELIKINKHKYYKLHHSQKNLEEIPSQKRSMYKKRFAMLEEIKTNLDKTLSIQD | not soluble |
| MRKERRMIKLAIFDMDGTLTDEPSSWEYVHRRLHTDNHMNFRLYRNGFISYEEFFRSDVLAWLRMHPRLKKDDIAGILRDIKLRDGSSEVVNGLKERGLITAVVSGGISWLCDILNEYMQIDYNLSNVIATDEGGFVQPWGYIRVIPERKNIAVKSLQSMLHISKDETISIGDSMENGMIHINSSKAYIIGGKGRHGEIPLGNNIRNLLSYI | not soluble |
| MGKIIAIANQKGGVGKTTTSVNLGAGLAQVGKKVLLVDIDAQGNATTGVGIEKSELDQCIYNVLVEDADVQGVIQKTATENLDVLPATIQLAGAEIELVPTISREVRLQRALQPVRDEYDYIIIDCPPSLGLLTINALTAADSVIIPVQCEYYALEGLSQLLNTVRLVQKHLNKNLAIQGVLLTMLDARTNLGIQVIDEVKKYFRDKVYRSIIPRNVRLSEAPSHGKPIMQYDAKSRGAEVYIDLAEEVIAGG | not soluble |
| MGSDKIHHHHHHYYYARGTYTHYNLDFDQDVTHLLDLGMKQISLEPVVAQPSDPYAFQEGDLPEILKTYDRLGEELLARRRKGEDFSFFHFNVALDQGPCLPKRLSGCGAGHEYVAISPEGDLYPCHQFVGQEEFKMGSLGQEGVPLNPEIIAKFRSAHVYSKAACRQCWARFSCSGGCHSANHAFSGQLNEVYALGCEFQKKRLEVALYMKIKEA | not soluble |
| MGSDKIHHHHHHMYQNDFVMPKSVYLLNHSVGRPLQSLRQAFDERFFLPWQGSGREPWGDWLSVVEDFRVQLARLFNSETRLFCPQVNLSSGLTKLVQSHSRLRRPGAVILMSENDFPSMGFALRQALPEAEIRFIPANLDVSLAEVWQAHLTDDIDLVFISHAYSNTGQQAPLDYLIPKVRELGALSLVDVAQAAGVLPLDLNALKPDFMLGSSVKWLCGGPGAAYLWVSAAQLVHCSPQDVGWFSHENPFEFDIHDFRYHDSALKFWGGTPSVAPFALAAHSIGYFAELGSDKVRQHNLMQLQRIWRQAGDALVSPSDAARCSGTAILDFGEDQQAVVEALTQADISLDVRKQGMRISPHIYNGEQDLQRLLEALAPFCR | not soluble |
| MDVTQLKMLRNAKVVSEIKKGFSIDKKYQVDETYLVRVFPKELLQTRKQEFEIIQALGSQTPFVPRAYDFGCTGGEGYMIIGYVRGEDAENGMFRLSHSEQFKAGFSAGEILREVHKIPLDIPKMNWLDFQTAKFKRKVEELKELEITASFLTETEQFVYENIARLKNRPVCLQHGDFHPANIILKNKKFAGLIDFNRLEFGDPLFDLAKIGFFTTEVSIPFARGNILGYIDKEEVTDFWNLYALYTAMHITSAVNWAAKNESRNFNKLMNYAAKTAASHDNFQKLMPDWMNKEEFK | not soluble |
| MPKNTKKSQGNKKLEMTNKQFDDLLKEMGGLPEGMNLDPELLAVLRQATNAEFNKVAKEKYGDVPEGSDDDEEQQTSEQNKEQQQSSSSKST | not soluble |
| RDSGTVWGALGHGINLNIPNFQMTDDIDEVRWERGSTLVAEFKRKMKPFLKSGAFEILANGDLKIKNLTRDDSGTYNVTVYSTNGTRILDKALDLRILE | soluble |
